Experimental data reported in patent publication US20260232732A1 (FUNDACI INSTITUT DE RECERCA CONTRA LA LEUC MIA JOSEP …, published 2026).
Where no end group is shown, it is not given here. The star is where a group is joined. Biotin = O=C1N[C@H]2[C@H](CS[C@H]2CCCCC(=O)*)N1

T1: biotin-peptide MTPTDFTSPI (human, also: prints MTPTDFTSP, without I10)
T1 peptide: Biotin-MTPTDFTSPI

T2: biotin-peptide TDFTSPIPNM (human)
T2 peptide: Biotin-TDFTSPIPNM

T3: biotin-peptide DYGSESTSSM (human)
T3 peptide: Biotin-DYGSESTSSM

T4: biotin-peptide SESTSSMEDY (human)
T4 peptide: Biotin-SESTSSMEDY

T5: biotin-peptide SSMEDYVNFN (human)
T5 peptide: Biotin-SSMEDYVNFN

T6: biotin-peptide SMEDYVNFNF (human)
T6 peptide: Biotin-SMEDYVNFNF

T7: biotin-peptide YVNFNFTDFY (human)
T7 peptide: Biotin-YVNFNFTDFY

T8: biotin-peptide YCEKNNVRQF (human)
T8 peptide: Biotin-YCEKNNVRQF

T9: Pep1-48, N-terminal domain 1 of CCR9, amino acids 1 to 48 (human)
T9 construct: Chemically synthesized (Genscript), purity >75%; also called CCR9 N-terminal 1-48 peptide
T9 peptide: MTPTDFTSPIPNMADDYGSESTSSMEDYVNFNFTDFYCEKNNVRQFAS

T10: biotin-peptide TSPIPNMADD (human)
T10 peptide: Biotin-TSPIPNMADD

T11: biotin-peptide IPNMADDYGS (human)
T11 peptide: Biotin-IPNMADDYGS

T12: biotin-peptide MADDYGSEST (human)
T12 peptide: Biotin-MADDYGSEST

T13: biotin-peptide TSSMEDYVNF (human)
T13 peptide: Biotin-TSSMEDYVNF

T14: biotin-peptide MEDYVNFNFT (human)
T14 peptide: Biotin-MEDYVNFNFT

T15: biotin-peptide FNFTDFYCEK (human)
T15 peptide: Biotin-FNFTDFYCEK

T16: biotin-peptide TDFYCEKNNV (human)
T16 peptide: Biotin-TDFYCEKNNV

T17: biotin-peptide KNNVRQFAS (human)
T17 peptide: Biotin-KNNVRQFAS

B1: Comparative antibody 2 (Comp-2) scFv, 243LO326 (VH SEQ ID NO: 51 and VL SEQ ID NO: 52 of WO 2022/195028 A2), His-tagged (scFv)
scFv: QVQLVQSGAEVKKPGASVKVSCKASGYTFTSYWMHWVRQAPGQGLEWIGVIYPGNSDTRYNQKFKGRVTITRDTSASTAYMELSSLRSEDTAVYYCTRDYYSNYVYYYAMDYWGQGTTVTVSSGGGGSGGGGSGGGGSGGGGSDIVMTQTPLSLPVTPGEPASISCRSSQSLVHPNRNTYLHWYLQKPGQSPQLLIYKVSNRFSGVPDRFSGSGSGTDFTLKISRVEAEDVGVYYCSQSTHVPWTFGQGTKLEIKHHHHHH
B2: Comparative antibody 1 (Comp-1) scFv, SEQ ID NO: 10 from WO2023/037125 A1, His-tagged (scFv)
scFv: QVQLKESGPGLVQPSQTLSLTCTVSGFSVASYDMHWVRLPPGKGLEWMGIIWANGNTHYNSGLKSRLSISRDTSKSQVFLKMNSLQTEDTAIYFCTRGGFAYWGQGTLVTVSSGGGGSGGGGSGGGGSGGGGSDVVMTQTPVSLSVSLGGQVSISCRSSQSLVHNNGNTYLSWYLQKPGQSPQLLIYKVSNRFSGVSDRFSGSGSGTDFTLKISRVEPDDLGVYYCGQGTQYPTFGGGTKLELKHHHHHH

Target: T1, biotin-peptide MTPTDFTSPI
Test: ELISA biotin-peptide; scFv 10 ug/mL; repI
Experimental: (§1) The peptides were synthesized naked or with a N-terminal Biotin modification with a purity of >98%. All four scFvs were verified by ELISA that can be detected with anti-His antibodies. ELISA was performed for scFv-peptide binding validation. Briefly, naked peptides were coated (50 μg/mL) in 0.58M carbonate-bicarbonate buffer pH9.5, 100 μL/well, 4° C. O/N. Then after blocking (3% BSA-PBS, 300 μL/well 37° C. 1.5 h) and washing (PBS+Tween-20 0.05% v/v (0.05% PBST), wells were incubated with each purified scFv antibody at concentration of 1 μg/mL in PBS at 37° C. 1 h. After washing (0.05% PBST), wells were incubated with secondary antibodies (goat anti-His IgG-HRP) in PBS, 37° C., 30 min. After washing, and incubation with TMB substrate, reactions were stopped with 2M HCl and reading was quantified at OD450.
(§2) Then a library of overlapping peptides were designed and constructed separately to produce 16 different peptides, covering full antigen sequence of total 48 aa. Peptide size was 10aa, with 7aa overlapping and ELISA screening of scFv against each peptide was performed in duplicate. Screening was performed using naked peptides in a standard plate or biotinylated peptides using avidin-plates. The list of overlapping peptides was as follows:
(§3) ELISA with biotin-conjugated peptides (5 μg/mL) was performed very similar to described above with minor modifications.

| Binder | OD450 |
| --- | --- |
| B1 | 0.08 OD |
| B2 | 0.08 OD |

Target: T2, biotin-peptide TDFTSPIPNM
Test: ELISA biotin-peptide; scFv 10 ug/mL; repI
Experimental: as §1, §2, §3

| Binder | OD450 |
| --- | --- |
| B1 | 0.1 OD |
| B2 | 0.06 OD |

Target: T3, biotin-peptide DYGSESTSSM
Test: ELISA biotin-peptide; scFv 10 ug/mL; repI
Experimental: as §1, §2, §3

| Binder | OD450 |
| --- | --- |
| B1 | 0.09 OD |
| B2 | 0.1 OD |

Target: T4, biotin-peptide SESTSSMEDY
Test: ELISA biotin-peptide; scFv 10 ug/mL; repI
Experimental: as §1, §2, §3

| Binder | OD450 |
| --- | --- |
| B1 | 0.06 OD |
| B2 | 0.13 OD |

Target: T5, biotin-peptide SSMEDYVNFN
Test: ELISA biotin-peptide; scFv 10 ug/mL; repI
Experimental: as §1, §2, §3

| Binder | OD450 |
| --- | --- |
| B1 | 0.12 OD |
| B2 | 0.1 OD |

Target: T6, biotin-peptide SMEDYVNFNF
Test: ELISA biotin-peptide; scFv 10 ug/mL; repI
Experimental: as §1, §2, §3

| Binder | OD450 |
| --- | --- |
| B1 | 0.09 OD |
| B2 | 0.15 OD |

Target: T7, biotin-peptide YVNFNFTDFY
Test: ELISA biotin-peptide; scFv 10 ug/mL; repI
Experimental: as §1, §2, §3

| Binder | OD450 |
| --- | --- |
| B1 | 1.93 OD |
| B2 | 0.1 OD |

Target: T8, biotin-peptide YCEKNNVRQF
Test: ELISA biotin-peptide; scFv 10 ug/mL; repI
Experimental: as §1, §2, §3

| Binder | OD450 |
| --- | --- |
| B1 | 0.09 OD |
| B2 | 0.06 OD |

Target: T9, Pep1-48, N-terminal domain 1 of CCR9, …
Test: BLI, scFv on NTA biosensor, 1:1 global fit
Experimental: The affinity between the CCR9-N-terminal domain 1 of CCR9 and the different scFvs was determined by Bio-Layer Interferometry (BLI), a technique that allows quantitative and qualitative measurement of biomolecular interactions in real-time. Briefly, scFv were immobilized onto NTA Biosensor (Sartorius) and quantification was performed in an Octet RED384 (Sartorius). scFv were dissolved in PBS (150 mM NaCl, 38 mM Na2HPO4, 12 mM NaH2PO4, pH 7.2) and a buffer containing 0.03% Tween-20 in PBS, pH 7.2 was used for baseline steps.

| Binder | Kd | koff | kon |
| --- | --- | --- | --- |
| B1 | 61.4 nM | 0.0152 s⁻¹ | 248000 M⁻¹ s⁻¹ |

Target: T2, biotin-peptide TDFTSPIPNM
Test: ELISA biotin-peptide; scFv 10 ug/mL; repII
Experimental: as §1, §3

| Binder | OD450 |
| --- | --- |
| B1 | 0.12 OD |
| B2 | 0.08 OD |

Target: T10, biotin-peptide TSPIPNMADD
Test: ELISA biotin-peptide; scFv 10 ug/mL; repII
Experimental: as §1, §3

| Binder | OD450 |
| --- | --- |
| B1 | 0.05 OD |
| B2 | 0.15 OD |

Target: T11, biotin-peptide IPNMADDYGS
Test: ELISA biotin-peptide; scFv 10 ug/mL; repII
Experimental: as §1, §3

| Binder | OD450 |
| --- | --- |
| B1 | 0.09 OD |
| B2 | 0.14 OD |

Target: T12, biotin-peptide MADDYGSEST
Test: ELISA biotin-peptide; scFv 10 ug/mL; repII
Experimental: as §1, §3

| Binder | OD450 |
| --- | --- |
| B1 | 0.09 OD |
| B2 | 0.07 OD |

Target: T3, biotin-peptide DYGSESTSSM
Test: ELISA biotin-peptide; scFv 10 ug/mL; repII
Experimental: as §1, §3

| Binder | OD450 |
| --- | --- |
| B1 | 0.09 OD |
| B2 | 0.11 OD |

Target: T4, biotin-peptide SESTSSMEDY
Test: ELISA biotin-peptide; scFv 10 ug/mL; repII
Experimental: as §1, §3

| Binder | OD450 |
| --- | --- |
| B1 | 0.05 OD |
| B2 | 0.1 OD |

Target: T13, biotin-peptide TSSMEDYVNF
Test: ELISA biotin-peptide; scFv 10 ug/mL; repII
Experimental: as §1, §3

| Binder | OD450 |
| --- | --- |
| B1 | 0.06 OD |
| B2 | 0.08 OD |

Target: T5, biotin-peptide SSMEDYVNFN
Test: ELISA biotin-peptide; scFv 10 ug/mL; repII
Experimental: as §1, §3

| Binder | OD450 |
| --- | --- |
| B1 | 0.1 OD |
| B2 | 0.13 OD |

Target: T6, biotin-peptide SMEDYVNFNF
Test: ELISA biotin-peptide; scFv 10 ug/mL; repII
Experimental: as §1, §3

| Binder | OD450 |
| --- | --- |
| B1 | 0.05 OD |
| B2 | 0.1 OD |

Target: T14, biotin-peptide MEDYVNFNFT
Test: ELISA biotin-peptide; scFv 10 ug/mL; repII
Experimental: as §1, §3

| Binder | OD450 |
| --- | --- |
| B1 | 0.08 OD |
| B2 | 0.14 OD |

Target: T7, biotin-peptide YVNFNFTDFY
Test: ELISA biotin-peptide; scFv 10 ug/mL; repII
Experimental: as §1, §3

| Binder | OD450 |
| --- | --- |
| B1 | 2.06 OD |
| B2 | 0.09 OD |

Target: T15, biotin-peptide FNFTDFYCEK
Test: ELISA biotin-peptide; scFv 10 ug/mL; repII
Experimental: as §1, §3

| Binder | OD450 |
| --- | --- |
| B1 | 1.35 OD |
| B2 | 0.05 OD |

Target: T16, biotin-peptide TDFYCEKNNV
Test: ELISA biotin-peptide; scFv 10 ug/mL; repII
Experimental: as §1, §3

| Binder | OD450 |
| --- | --- |
| B1 | 0.05 OD |
| B2 | 0.05 OD |

Target: T8, biotin-peptide YCEKNNVRQF
Test: ELISA biotin-peptide; scFv 10 ug/mL; repII
Experimental: as §1, §3

| Binder | OD450 |
| --- | --- |
| B1 | 0.1 OD |
| B2 | 0.06 OD |

Target: T17, biotin-peptide KNNVRQFAS
Test: ELISA biotin-peptide; scFv 10 ug/mL; repII
Experimental: as §1, §3

| Binder | OD450 |
| --- | --- |
| B1 | 0.07 OD |
| B2 | 0.06 OD |
